Results published in FireProtDB (doi:10.1093/protein/13.4.299).
Values joined by “and” are separate entries in the source; they are usually repeats but may differ in a detail not shown here. Equal values may be shown once.

Settings: Homo sapiens, DSC, reversible: yes, whole UniProt chain shown; for Tm / heat capacity change of unfolding / unfolding enthalpy (calorimetric) / unfolding enthalpy (van 't Hoff): Thermal; for denaturant m value / denaturant midpoint (higher = more stable) / unfolding free energy: 25 °C, GdnHCl

B1: Lysozyme C wild type, P61626 (protein)
chain: MKALIVLGLVLLSVTVQGKVFERCELARTLKRLGMDGYRGISLANWMCLAKWESGYNTRATNYNAGDRSTDYGIFQINSRYWCNDGKTPGAVNACHLSCSALLQDNIADAVACAKRVVRDPQGIRAWVAWRNRCQNRDVRQYVQGCGV
- Tm (pH 2.63, glycine-HCl 50 mM): 55.6 °C
- heat capacity change of unfolding (pH 2.63, glycine-HCl 50 mM): 1.94 kcal/mol/K
- unfolding enthalpy (calorimetric) (pH 2.63, glycine-HCl 50 mM): 379 kJ/mol
- unfolding enthalpy (van 't Hoff) (pH 2.63, glycine-HCl 50 mM): 403 kJ/mol
- Tm (pH 2.64, glycine-HCl 50 mM): 56.4 °C
- heat capacity change of unfolding (pH 2.64, glycine-HCl 50 mM): 1.63 kcal/mol/K
- unfolding enthalpy (calorimetric) (pH 2.64, glycine-HCl 50 mM): 398 kJ/mol
- unfolding enthalpy (van 't Hoff) (pH 2.64, glycine-HCl 50 mM): 400 kJ/mol
- Tm (pH 2.68, glycine-HCl 50 mM): 56.8 °C
- heat capacity change of unfolding (pH 2.68, glycine-HCl 50 mM): 1.94 kcal/mol/K
- unfolding enthalpy (calorimetric) (pH 2.68, glycine-HCl 50 mM): 385 kJ/mol
- unfolding enthalpy (van 't Hoff) (pH 2.68, glycine-HCl 50 mM): 403 kJ/mol
- Tm (pH 2.75, glycine-HCl 50 mM): 58.2 °C
- heat capacity change of unfolding (pH 2.75, glycine-HCl 50 mM): 1.77 kcal/mol/K
- unfolding enthalpy (calorimetric) (pH 2.75, glycine-HCl 50 mM): 408 kJ/mol
- unfolding enthalpy (van 't Hoff) (pH 2.75, glycine-HCl 50 mM): 414 kJ/mol
- Tm (pH 2.78, glycine-HCl 50 mM): 59 °C
- heat capacity change of unfolding (pH 2.78, glycine-HCl 50 mM): 1.31 kcal/mol/K
- unfolding enthalpy (calorimetric) (pH 2.78, glycine-HCl 50 mM): 410 kJ/mol
- unfolding enthalpy (van 't Hoff) (pH 2.78, glycine-HCl 50 mM): 423 kJ/mol
- Tm (pH 2.84, glycine-HCl 50 mM): 60.3 °C
- heat capacity change of unfolding (pH 2.84, glycine-HCl 50 mM): 1.67 kcal/mol/K
- unfolding enthalpy (calorimetric) (pH 2.84, glycine-HCl 50 mM): 412 kJ/mol
- unfolding enthalpy (van 't Hoff) (pH 2.84, glycine-HCl 50 mM): 431 kJ/mol
- Tm (pH 2.87, glycine-HCl 50 mM): 60.5 °C
- heat capacity change of unfolding (pH 2.87, glycine-HCl 50 mM): 1.7 kcal/mol/K
- unfolding enthalpy (calorimetric) (pH 2.87, glycine-HCl 50 mM): 414 kJ/mol
- unfolding enthalpy (van 't Hoff) (pH 2.87, glycine-HCl 50 mM): 414 kJ/mol
- Tm (pH 2.93, glycine-HCl 50 mM): 62.5 °C
- heat capacity change of unfolding (pH 2.93, glycine-HCl 50 mM): 1.46 kcal/mol/K
- unfolding enthalpy (calorimetric) (pH 2.93, glycine-HCl 50 mM): 427 kJ/mol
- unfolding enthalpy (van 't Hoff) (pH 2.93, glycine-HCl 50 mM): 427 kJ/mol
- denaturant m value (pH 3, glycine-HCl 50 mM): 3.23 kcal/mol/M and 3.01 kcal/mol/M
- denaturant midpoint (higher = more stable) (pH 3, glycine-HCl 50 mM): 2.9 M and 2.1 M
- unfolding free energy (pH 3, glycine-HCl 50 mM): 39.7 kJ/mol and 25.9 kJ/mol
- denaturant m value (pH 4, glycine-HCl 50 mM): 3.37 kcal/mol/M and 2.96 kcal/mol/M
- denaturant midpoint (higher = more stable) (pH 4, glycine-HCl 50 mM): 3.8 M and 2.8 M
- unfolding free energy (pH 4, glycine-HCl 50 mM): 53.8 kJ/mol and 34.5 kJ/mol
- denaturant m value (pH 7, Sodium phosphate 50 mM): 3.01 kcal/mol/M
- denaturant midpoint (higher = more stable) (pH 7, Sodium phosphate 50 mM): 4 M
- unfolding free energy (pH 7, Sodium phosphate 50 mM): 50.4 kJ/mol
